For 37 molecules, ELISA data results are on record in patent US20200377590A1 (Hoffmann-La Roche, published 2020).

For the assay, the target named is T1, CD81 (UniProt P60033 1-236, limits assumed).
T1 construct: whole, on cells; also called CD81 receptor
T1 sequence (looked up): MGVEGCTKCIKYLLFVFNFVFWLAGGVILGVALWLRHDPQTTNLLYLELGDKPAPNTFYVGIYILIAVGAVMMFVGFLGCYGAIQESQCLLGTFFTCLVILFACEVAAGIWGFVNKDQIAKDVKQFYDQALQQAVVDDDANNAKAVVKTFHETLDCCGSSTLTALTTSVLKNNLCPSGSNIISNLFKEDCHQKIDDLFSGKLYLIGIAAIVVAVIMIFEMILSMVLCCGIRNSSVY
Kind of assay: cell ELISA.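 Note: antibody binding to HuH7 cells expressing CD81 versus a CD81-negative HuH7 control line, bound antibody detected by secondary reagent, absorbance at 450 nm with 620 nm reference.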

Where a chain is given by its changes, count along the chain named.

Description: For the binding cell ELISA assay, HuH7-Rluc-H3 (positive cell line expressing CD81) and HuH7-Rluc-L1 (negative control cell line) were propagated in F-12 DMEM medium with 10% FCS at 37° C. and 5% CO₂. On day 1, the cells were trypsinized at approximately 90% confluence and resuspended at 4×10⁵ cells/mL. […] On day 2, the antibody samples to be tested were prepared in a separate polypropylene round bottom plate with a twofold desired concentration with a final volume of 120 μl. All of the assay samples were diluted in cell culture medium. […] After fixation, each well was washed 3 times with 200 μL PBS/0.05% Tween. The secondary incubation step for detection of bound anti-CD81 antibodies was performed for 2 h at room temperature on a reciprocal shaker. […] Each well was washed three times with 200 μL PBS/0.05% Tween to remove unbound antibodies. […] The absorbance was read using the ELISA Tecan reader at 450 nm with 620 nm reference wavelength.

B1: CD81K13 HC CD81K13 / LC 07-hVK_1_27 (antibody, V domains shown)
VH: EVRLHQSAAQLVQPGASVRLSCTTSGFNFKDSYLHWVKQRPAQGLEWIGRIDTGNGNVKFDPKFQDKATITTDIPSMTAYLHLSNLTSEDTAVYYCVPYGYGFHSWGDGTTLTVSS
VL: DIQMTQSPSSLSASVGDRVTITCRASENIYRTLAWYQQKPGKVPKLLIYAATTLASGVPSRFSGSGSGTDFTLTISSLQPEDVGTYYCQKFWGTPWTFGQGTKVEIK
notes: human constant region
B1 returned an ELISA data of 0.199.

B2: CD81K13 HC 01-hVH_1_f / LC 03-hVK_1_9 (antibody, V domains shown)
VH: EVQLVQSGAEVKKPGATVKISCKVSGYTFTDSYMHWVQQAPGKGLEWMGRIDTGNGNVKFDPKFQGRVTITADTSTDTAYMELSSLRSEDTAVYYCAPYGYGFHSWGQGTLVTVSS
VL: B1 VL with M4L, S10F, V43A, D70E, V83F, G84A, K90H
notes: human constant region
B2 had an ELISA data of 0.294.

B3: CD81K13 HC 02-hVH_1_3 / LC 04-hVK_1_9 (antibody, V domains shown)
VH: QVQLVQSGAEVKKPGASVKVSCKASGYTFTDSYMHWVRQAPGQRLEWMGRIDTGNGNTKYSQKFQGRVTITTDTSASTAYMELSSLRSEDTAVYYCAPYGYGFHSWGQGTLVTVSS
VL: B1 VL with M4L, S10F, V43A, D70E, V83F, K90H
notes: human constant region
Turning to B3, the ELISA data is 0.163.

B4: CD81K13 HC 01-hVH_1_f / LC 05-hVK_1_39 (antibody, V domains shown)
VH: B2 VH
VL: B1 VL with V43A, V83F, G84A, K90H
notes: human constant region
On to B4, for which the ELISA data is 0.458.

B5: CD81K13 HC 02-hVH_1_3 / LC 03-hVK_1_9 (antibody, V domains shown)
VH: B3 VH
VL: B1 VL with M4L, S10F, V43A, D70E, V83F, G84A, K90H
notes: human constant region
Molecule B5 returned an ELISA data of 0.13.

B6: CD81K13 HC 01-hVH_1_f / LC 04-hVK_1_9 (antibody, V domains shown)
VH: B2 VH
VL: B1 VL with M4L, S10F, V43A, D70E, V83F, K90H
notes: human constant region
B6: the ELISA data was 0.244.

B7: CD81K13 HC 02-hVH_1_3 / LC 06-hVK_1_39 (antibody, V domains shown)
VH: B3 VH
VL: B1 VL with V43A, V83F, K90H
notes: human constant region
B7 showed an ELISA data of 0.251.

B8: CD81K13 HC 02-hVH_1_3 / LC 5b-hVK_1_39 (antibody, V domains shown)
VH: B3 VH
VL: B1 VL with V43A, A50G, S56D, V83F, G84A, K90H
notes: human constant region
The molecule B8 returned an ELISA data of 0.29.

B9: CD81K13 HC 01-hVH_1_f / LC 07-hVK_1_27 (antibody, V domains shown)
VH: B2 VH
VL: B1 VL
notes: human constant region
On to B9, for which the ELISA data is 0.086.

B10: CD81K13 HC 01-hVH_1_f / LC 5b-hVK_1_39-GA (antibody, V domains shown)
VH: B2 VH
VL: B1 VL with V43A, A50G, S56D, V83F, G84A, K90H
notes: human constant region
As for B10, the ELISA data was 0.848.

B11: CD81K13 HC 02-hVH_1_3 / LC 05-hVK_1_39 (antibody, V domains shown)
VH: B3 VH
VL: B1 VL with V43A, V83F, G84A, K90H
notes: human constant region
Turning to B11, the ELISA data was 0.161.

B12: CD81K13 HC 01-hVH_1_f / LC 5b-hVK_1_39 (antibody, V domains shown)
VH: B2 VH
VL: B1 VL with V43A, A50G, S56D, V83F, G84A, K90H
notes: human constant region
Consider B12, for which the ELISA data came out at 0.89.

B13: CD81K13 HC 02-hVH_1_3 / LC 5b-hVK_1_39-GA (antibody, V domains shown)
VH: B3 VH
VL: B1 VL with V43A, A50G, S56D, V83F, G84A, K90H
notes: human constant region
In the case of B13, the ELISA data worked out at 0.247.

B14: CD81K13 HC 01-hVH_1_f / LC 06-hVK_1_39 (antibody, V domains shown)
VH: B2 VH
VL: B1 VL with V43A, V83F, K90H
notes: human constant region
Take B14: the ELISA data was determined as 0.822.

B15: CD81K13 HC 02-hVH_1_3 / LC 01-hVK_3_15 (antibody, V domains shown)
VH: B3 VH
VL: EIVMTQSPATLSVSPGERATLSCRASENIYRTLAWYQQKPGQAPRLLIYGATTRATGIPARFSGSGSGTEFTLTISSLQSEDFGVYYCQHFWGTPWTFGQGTKVEIK
notes: human constant region
In turn, B15 had an ELISA data of 0.314.

B16: CD81K13 HC 02-hVH_1_3 / LC 1b-hVK_3_15 (antibody, V domains shown)
VH: B3 VH
VL: B15 VL with R54L, T56D, G84A
notes: human constant region
As for B16, the ELISA data was 0.347.

B17: CD81K13 HC 05-hVH_1_69 / LC 1c-hVK_3_15 (antibody, V domains shown)
VH: QVQLVQSGAEVKKPGSSVKVSCKASGFNFKDSYLHWVRQAPGQGLEWMGRIDTGNGNVKFDPKFQGRVTITTDESTSTAYMELSSLRSEDTAVYYCVPYGYGFHSWGQGTLVTVSS
VL: B15 VL with R54L, T56D
notes: human constant region
B17 had an ELISA data of 0.767.

B18: CD81K13 HC 02-hVH_1_3 / LC 1c-hVK_3_15 (antibody, V domains shown)
VH: B3 VH
VL: B15 VL with R54L, T56D
notes: human constant region
B18 came in with an ELISA data of 0.283.

B19: CD81K13 HC 5b-hVH_1_69 / LC 01-hVK_3_15 (antibody, V domains shown)
VH: B17 VH with V11L, K12V
VL: B15 VL
notes: human constant region
In turn, B19 gave an ELISA data of 0.749.

B20: CD81K13 HC 5b-hVH_1_69 / LC 1b-hVK_3_15 (antibody, V domains shown)
VH: B17 VH with V11L, K12V
VL: B15 VL with R54L, T56D, G84A
notes: human constant region
B20 gave an ELISA data of 0.646.

B21: CD81K13 HC 05-hVH_1_69 / LC 01-hVK_3_15 (antibody, V domains shown)
VH: B17 VH
VL: B15 VL
notes: human constant region
For the molecule B21, the ELISA data was determined as 0.684.

B22: CD81K13 HC 03-hVH_1_69 / LC 1b-hVK_3_15 (antibody, V domains shown)
VH: B17 VH with F60Y, D61A, P62Q, T72A, V97A
VL: B15 VL with R54L, T56D, G84A
notes: human constant region
B22 had an ELISA data of 0.403.

B23: CD81K13 HC 03-hVH_1_69 / LC 1c-hVK_3_15 (antibody, V domains shown)
VH: B17 VH with F60Y, D61A, P62Q, T72A, V97A
VL: B15 VL with R54L, T56D
notes: human constant region
Molecule B23 returned an ELISA data of 0.252.

B24: CD81K13 HC 03-hVH_1_69 / LC 01-hVK_3_15 (antibody, V domains shown)
VH: B17 VH with F60Y, D61A, P62Q, T72A, V97A
VL: B15 VL
notes: human constant region
The molecule B24 came in with an ELISA data of 0.649.

B25: CD81K13 HC 05-hVH_1_69 / LC 1b-hVK_3_15 (antibody, V domains shown)
VH: B17 VH
VL: B15 VL with R54L, T56D, G84A
notes: human constant region
Regarding B25, the ELISA data turned out to be 0.624.

B26: CD81K13 HC 5b-hVH_1_69 / LC 1c-hVK_3_15 (antibody, V domains shown)
VH: B17 VH with V11L, K12V
VL: B15 VL with R54L, T56D
notes: human constant region
On to B26, for which the ELISA data is 0.701.

B27: CD81K13 HC 01-hVH_1_f / LC CD81K13 (antibody, V domains shown)
VH: B2 VH
VL: DIQMTQSPASLSVSVGETVTITCRASENIYRTLAWYLQKQGKSPQLLVYGATTLADGVPSRFSGSGSGTQYYLKINSLQSEDFGTYHCQHFWGTPWTFGGGTKVEIK
notes: human constant region
For B27, the ELISA data was 0.272.

B28: CD81K13 HC 01-hVH_1_f / LC 1c-hVK_3_15 (antibody, V domains shown)
VH: B2 VH
VL: B15 VL with R54L, T56D
notes: human constant region
Regarding B28, the ELISA data came to 0.617.

B29: CD81K13 HC 01-hVH_1_f / LC 01-hVK_3_15 (antibody, V domains shown)
VH: B2 VH
VL: B15 VL
notes: human constant region
On to B29, for which the ELISA data turned out to be 0.527.

B30: CD81K13 HC 01-hVH_1_f / LC 1b-hVK_3_15 (antibody, V domains shown)
VH: B2 VH
VL: B15 VL with R54L, T56D, G84A
notes: human constant region
Take B30: the ELISA data was 0.392.

B31: CD81K13 HC 05-hVH_1_69 / LC CD81K13 (antibody, V domains shown)
VH: B17 VH
VL: B27 VL
notes: human constant region
For B31, the ELISA data was 0.94.

B32: CD81K13 HC 02-hVH_1_3 / LC CD81K13 (antibody, V domains shown)
VH: B3 VH
VL: B27 VL
notes: human constant region
Turning to B32, the ELISA data was found to be 0.585.

B33: CD81K13 HC 5b-hVH_1_69-GA / LC CD81K13 (antibody, V domains shown)
VH: B17 VH with V11L, K12V
VL: B27 VL
notes: human constant region
With B33, the ELISA data was 0.935.

B34: CD81K13 HC 5b-hVH_1_69 / LC CD81K13 (antibody, V domains shown)
VH: B17 VH with V11L, K12V
VL: B27 VL
notes: human constant region
As for B34, the ELISA data came to 0.813.

B35: CD81K13 HC 07-hVH_1_3 / LC CD81K13 (antibody, V domains shown)
VH: B17 VH with S16A, F27Y, N28T, E74T, T76A, V97A
VL: B27 VL
notes: human constant region
As to B35, the ELISA data came to 0.572.

B36: CD81K13 HC 06-hVH_1_3 / LC CD81K13 (antibody, V domains shown)
VH: B3 VH with T30K, M34L, T58V, Y60F, S61D, Q62P
VL: B27 VL
notes: human constant region
On to B36, for which the ELISA data is 0.447.

B37: CD81K13 HC 03-hVH_1_69 / LC CD81K13 (antibody, V domains shown)
VH: B17 VH with F60Y, D61A, P62Q, T72A, V97A
VL: B27 VL
notes: human constant region
Consider B37, for which the ELISA data stood at 0.787.
